Results on 16 molecules are retold here after patent US20210145976A1.

B1: SEQ ID NO 279 (designed binder)
chain: MLPAPKNLVVSRVTEDSARLSWTAPDAAFDSFSIEYYESVGLGEAIVLTVPGSERSYDLTGLKPGTEYDVSIYGVKGGYLSRPLSAIFTT
B2: SEQ ID NO 56 (designed binder)
chain: B1 chain with S33V, Y37F, S39A, V40L, G41E, L42G, D69F, S71G, Y79P, R82K
B3: SEQ ID NO 287 (designed binder)
chain: B1 chain with S33T, Y37H, V40G, G41P, L42V, D69M, S71W, Y73F, Y79F, L80V
B4: SEQ ID NO 55 (designed binder)
chain: B1 chain with S33I, Y37W, S39F, L42Y, D69W, S71A, Y79D, R82K
B5: SEQ ID NO 281 (designed binder)
chain: MLPAPKNLVVSRVTEDSARLSWTAPDAAFDSFYIDYDEIHDWGEAIVLTVPGSERSYDLTGLKPGTEYAVQIGGVKGGSFSWTLSAIFTT
B6: SEQ ID NO 291 (designed binder)
chain: MLPAPKNLVVSRVTEDSARLSWTAPDAAFDSFHIEYEEPETEGEAIYLHVPGSERSYDLTGLKPGTEYKVLIRGVKGGSYSIPLQAPFTT
B7: SEQ ID NO 292 (designed binder)
chain: MLPAPKNLVVSRVTEDSARLSWTAPDAAFDSFDIAYWELTPSGEAIELLVPGSERSYDLTGLKPGTEYRVDIIGVKGGFISEPLGATFTT
B8: SEQ ID NO 294 (designed binder)
chain: MLPAPKNLVVSRVTEDSARLSWTAPDAAFDSFSIIYSEWNVTGEAIVLTVPGSERSYDLTGLKPGTEYDVWIEGVKGGGMSKPLSAISTT
B9: SEQ ID NO 290 (designed binder)
chain: MLPAPKNLVVSRVTEDSARLSWTAPDAAFDSFFYLEQAWGGEAIVLTVPGSERSYDLTGLKPGTEYWVEITGVKGGYASSPLSAIFTT
B10: SEQ ID NO 285 (designed binder)
chain: MLPAPKNLVVSRVTEDSARLSWTAPDAAFDSFLIPYAETSPSGEAIVLTVPGSERSYDLTGLKPGTEYSVLIHGVKGGDYSSPLSAIFTT
B11: SEQ ID NO 288 (designed binder)
chain: B10 chain with F88S
B12: SEQ ID NO 286 (designed binder)
chain: MLPAPKNLVVSRVTEDSARLSWTAPDAAFDSFNIYYPEFPVRGEAIVLTVPGSERSYDLTGLKPGTEYVVSIWGVKGGTQSWPLSAIFTT
B13: SEQ ID NO 289 (designed binder)
chain: MLPAPKNLVVSRVTEDSARLSWTAPDAAFDSFAIPYYEDTNDGEAIVLTVPGSERSYDLTGLKPGTEYWVSIQGVKGGTVSGPLSAIFTT
B14: SEQ ID NO 282 (designed binder)
chain: MLPAPKNLVVSRVTEDSARLSWTAPDAAFDSFAIVYHEPRPDGEAIVLTVPGSERSYDLTGLKPGTEYEVVILGVKGGVHSYPLSAIFTT
B15: SEQ ID NO 283 (designed binder)
chain: B10 chain with L33P, P35A, T39P, S40R, S42D, D79L, Y80L
B16: SEQ ID NO 295 (designed binder)
chain: B14 chain with A33F, V35G, H37L, R40I, D42S, E69P, L73Q, V79H, H80P, Y82Q

Changes are numbered by the printed parent chain.

human serum albumin (human), sequence (P02768 25-609 limits assumed): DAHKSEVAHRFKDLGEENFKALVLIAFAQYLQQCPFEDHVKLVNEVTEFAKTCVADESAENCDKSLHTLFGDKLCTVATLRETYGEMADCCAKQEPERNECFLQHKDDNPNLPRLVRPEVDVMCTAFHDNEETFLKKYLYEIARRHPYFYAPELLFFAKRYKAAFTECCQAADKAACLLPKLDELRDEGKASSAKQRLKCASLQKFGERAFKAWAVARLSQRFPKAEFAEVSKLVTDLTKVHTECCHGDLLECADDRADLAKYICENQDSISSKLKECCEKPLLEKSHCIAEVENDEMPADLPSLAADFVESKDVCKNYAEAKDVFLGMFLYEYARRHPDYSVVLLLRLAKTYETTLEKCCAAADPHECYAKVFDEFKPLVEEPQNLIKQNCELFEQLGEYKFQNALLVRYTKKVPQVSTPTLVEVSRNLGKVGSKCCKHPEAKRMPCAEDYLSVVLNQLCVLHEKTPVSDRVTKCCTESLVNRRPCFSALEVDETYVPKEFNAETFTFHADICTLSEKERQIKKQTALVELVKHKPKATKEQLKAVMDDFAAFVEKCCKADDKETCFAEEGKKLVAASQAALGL

This test concerns the target human serum albumin (human) (UniProt P02768). Description: screening ELISA.
In turn, B1 had an HSA of 3150.
The value for B2 was 7520; that for B3 was 5500; that for B4 was 7760.
The value for B5 was 22400.
To B6 belongs 2150; to B7, 8850.
On to B8, for which the HSA was determined as 8250.
The molecule B9 yielded an HSA of 11800.
The value for B10 was 2200; that for B11 was 40800.
To B12 belongs 10800.
The value for B13 was 2150; that for B14 was 18600.
For the molecule B15, the HSA came out at 6250.
To B16 belongs 3800.
